Reference: PMC4616025, “Identification of a phosphinothricin-resistant mutant of rice glutamine synthetase using DNA shuffling” (Scientific Reports, 2015)

Substrate: N[C@@H](CCC(=O)O)C(=O)O
Assay: purified protein
Type: biochemical, Oryza sativa
Conditions: general assay: 5 mM ATP, 30 mM hydroxylamine, 50 mM MgCl2, 100 mM Tris-HCl pH 7.5, 37 °C, Km measured as in a cited method

B1: OsGS1S (Oryza sativa Japonica Group) (protein)
chain: MASLTDLVNLNLSDTTEKIIAEYIWIGGSGMDLRSKARTLSGPVTDPSKLPKWNYDGSSTGQAPGEDSEVILYPQAIFKDPFRKGNNILVMCDCYTPAGEPIPTNKRHNAAKIFSSPEVASEEPWYGIEQEYTLLQKDINWPLGWPVGGFPGPQGPYYCGIGADKSFGRDIVDSHYKACLYAGINISGINGEVMPGQWEFQVGPSVGISAGDQVWVARYILERITEIAGVVVSFDPKPIPGDWNGAGAHTNYSTKSMRNDGGYEIIKSAIEKLKLRHKEHISAYGEGNERRLTGRHETADINTFSWGVANRGASVRVGRETEQNGKGYFEDRRPASNMDPYIVTSMIAETTIIWKP
notes: full-length, plant-codon-optimized synthetic gene (PTDS), vector pYM4087 with six-histidine tag, expressed in E. coli BL21(DE3), Ni-NTA purified; forward primer atggcttctctcaccga
Km: 1.22 ± 0.011 mM

B2: OsGS1S (Oryza sativa Japonica Group; A63E/R295K/T293A/V193A) (protein)
chain: MASLTDLVNLNLSDTTEKIIAEYIWIGGSGMDLRSKARTLSGPVTDPSKLPKWNYDGSSTGQEPGEDSEVILYPQAIFKDPFRKGNNILVMCDCYTPAGEPIPTNKRHNAAKIFSSPEVASEEPWYGIEQEYTLLQKDINWPLGWPVGGFPGPQGPYYCGIGADKSFGRDIVDSHYKACLYAGINISGINGEAMPGQWEFQVGPSVGISAGDQVWVARYILERITEIAGVVVSFDPKPIPGDWNGAGAHTNYSTKSMRNDGGYEIIKSAIEKLKLRHKEHISAYGEGNERRLAGKHETADINTFSWGVANRGASVRVGRETEQNGKGYFEDRRPASNMDPYIVTSMIAETTIIWKP
notes: as for B1
Km (stated gain): 7.99 ± 0.021 mM

B3: OsGS1S (Oryza sativa Japonica Group; R295K) (protein)
chain: MASLTDLVNLNLSDTTEKIIAEYIWIGGSGMDLRSKARTLSGPVTDPSKLPKWNYDGSSTGQAPGEDSEVILYPQAIFKDPFRKGNNILVMCDCYTPAGEPIPTNKRHNAAKIFSSPEVASEEPWYGIEQEYTLLQKDINWPLGWPVGGFPGPQGPYYCGIGADKSFGRDIVDSHYKACLYAGINISGINGEVMPGQWEFQVGPSVGISAGDQVWVARYILERITEIAGVVVSFDPKPIPGDWNGAGAHTNYSTKSMRNDGGYEIIKSAIEKLKLRHKEHISAYGEGNERRLTGKHETADINTFSWGVANRGASVRVGRETEQNGKGYFEDRRPASNMDPYIVTSMIAETTIIWKP
notes: as for B1
Km (stated gain): 8.04 ± 0.015 mM
